Measured values from the supplement of paper PMC5998384.

Tests used:
[1] = test system: HeLa Kyoto; assay: solubility in G1/S (NP-40 vs SDS abundance) (log2 ratio); higher = more soluble; details: cell cycle stage: G1/S
[2] = test system: HeLa Kyoto; assay: melting temperature (median over replicates), in situ; higher = more thermally stable
[3] = test system: HeLa Kyoto; assay: solubility change mitosis vs G1/S (difference of NP-40 vs SDS log2 ratios) (log2 ratio difference); higher = more soluble in mitosis
[4] = test system: HeLa Kyoto; assay: thermal stability score vs G1/S (z-score of summed log2 fold changes over temperatures); higher = more thermally stable than in G1/S
[5] = cell cycle stage: early G1 (4.5 h after nocodazole release)
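For melting temperature (median over replicates), in situ in this document: HeLa Kyoto cells synchronized by double thymidine or nocodazole block, proteins quantified by TMT10plex mass spectrometry, three independent biological replicates.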
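For solubility change mitosis vs G1/S (difference of NP-40 vs SDS log2 ratios) in this document: synchronized HeLa Kyoto cells (double thymidine block for G1/S, nocodazole release for mitosis), protein amounts in NP-40 versus SDS lysates quantified by mass spectrometry, three biological replicates.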
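For solubility in G1/S (NP-40 vs SDS abundance) in this document: HeLa Kyoto cells arrested at G1/S by double thymidine block, proteins quantified by TMT10plex mass spectrometry in mild NP-40 versus SDS extracts, three biological replicates.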
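For thermal stability score vs G1/S (z-score of summed log2 fold changes over temperatures) in this document: synchronized HeLa Kyoto cells, proteins quantified by TMT10plex mass spectrometry, three biological replicates, mitosis taken 0.5 h after nocodazole release, G1/S directly after double thymidine block.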

Sequence of NPTN (chain, as listed by the source): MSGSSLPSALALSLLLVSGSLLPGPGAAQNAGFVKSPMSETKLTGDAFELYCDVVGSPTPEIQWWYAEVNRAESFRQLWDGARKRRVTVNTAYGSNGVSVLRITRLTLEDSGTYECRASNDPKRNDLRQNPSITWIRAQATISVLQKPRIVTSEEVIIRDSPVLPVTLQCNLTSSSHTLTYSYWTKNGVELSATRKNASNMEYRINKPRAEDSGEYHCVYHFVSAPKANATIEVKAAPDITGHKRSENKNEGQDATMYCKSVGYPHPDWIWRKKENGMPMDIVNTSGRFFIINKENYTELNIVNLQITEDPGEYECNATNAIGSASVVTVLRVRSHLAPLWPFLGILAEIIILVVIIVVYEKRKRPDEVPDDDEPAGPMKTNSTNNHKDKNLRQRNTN

## WDR62
[1]
  solubility in G1/S (log2): -0.382
[2]; cell cycle stage: G1/S
  melting temperature: 49 °C
[2]; cell cycle stage: mitosis
  melting temperature: 49.3 °C
[3]
  solubility change mitosis (log2): 0.187
[4]; [5]
  thermal stability score: 0.713
[4]; cell cycle stage: mitosis
  thermal stability score: 1.36

## MAANKPKGQNSLALHKVIMVGSGGVGKSALTLQFMYDEFVEDYEPTKADSYRKKVVLDGEEVQIDILDTAGQEDYAAIRDNYFRSGEGFLCVFSITEMESFAATADFREQILRVKEDENVPFLLVGNKSDLEDKRQVSVEEAKNRAEQWNVNYVETSAKTRANVDKVFFDLMREIRARKMEDSKEKNGKKKRKSLAKRIRERCCIL [RALA]
[1]
  solubility in G1/S (log2): 0.0126
[2]; cell cycle stage: G1/S
  melting temperature: 58.9 °C
[2]; cell cycle stage: mitosis
  melting temperature: 57.4 °C
[3]
  solubility change mitosis (log2): -0.0413
[4]; [5]
  thermal stability score: -3.71
[4]; cell cycle stage: mitosis
  thermal stability score: -3.15

## MDPFLVLLHSVSSSLSSSELTELKFLCLGRVGKRKLERVQSGLDLFSMLLEQNDLEPGHTELLRELLASLRRHDLLRRVDDFEAGAAAGAAPGEEDLCAAFNVICDNVGKDWRRLARQLKVSDTKIDSIEDRYPRNLTERVRESLRIWKNTEKENATVAHLVGALRSCQMNLVADLVQEVQQARDLQNRSGAMSPMSWNSDASTSEAS [FADD]
[1]
  solubility in G1/S (log2): -0.257
[2]; cell cycle stage: G1/S
  melting temperature: 52.3 °C
[2]; cell cycle stage: mitosis
  melting temperature: 49.4 °C
[3]
  solubility change mitosis (log2): -0.0735
[4]; [5]
  thermal stability score: -0.0741
[4]; cell cycle stage: mitosis
  thermal stability score: 1.4

## MAAAAVDSAMEVVPALAEEAAPEVAGLSCLVNLPGEVLEYILCCGSLTAADIGRVSSTCRRLRELCQSSGKVWKEQFRVRWPSLMKHYSPTDYVNWLEEYKVRQKAGLEARKIVASFSKRFFSEHVPCNGFSDIENLEGPEIFFEDELVCILNMEGRKALTWKYYAKKILYYLRQQKILNNLKAFLQQPDDYESYLEGAVYIDQYCNPLSDISLKDIQAQIDSIVELVCKTLRGINSRHPSLAFKAGESSMIMEIELQSQVLDAMNYVLYDQLKFKGNRMDYYNALNLYMHQVLIRRTGIPISMSLLYLTIARQLGVPLEPVNFPSHFLLRWCQGAEGATLDIFDYIYIDAFGKGKQLTVKECEYLIGQHVTAALYGVVNVKKVLQRMVGNLLSLGKREGIDQSYQLLRDSLDLYLAMYPDQVQLLLLQARLYFHLGIWPEKSFCLVLKVLDILQHIQTLDPGQHGAVGYLVQHTLEHIERKKEEVGVEVKLRSDEKHRDVCYSIGLIMKHKRYGYNCVIYGWDPTCMMGHEWIRNMNVHSLPHGHHQPFYNVLVEDGSCRYAAQENLEYNVEPQEISHPDVGRYFSEFTGTHYIPNAELEIRYPEDLEFVYETVQNIYSAKKENIDE [FBXO21]
[1]
  solubility in G1/S (log2): -0.126
[3]
  solubility change mitosis (log2): -0.0785
[4]; [5]
  thermal stability score: 0.858
[4]; cell cycle stage: mitosis
  thermal stability score: 1.12

## MWDQRLVRLALLQHLRAFYGIKVKGVRGQCDRRRHETAATEIGGKIFGVPFNALPHSAVPEYGHIPSFLVDACTSLEDHIHTEGLFRKSGSVIRLKALKNKVDHGEGCLSSAPPCDIAGLLKQFFRELPEPILPADLHEALLKAQQLGTEEKNKATLLLSCLLADHTVHVLRYFFNFLRNVSLRSSENKMDSSNLAVIFAPNLLQTSEGHEKMSSNTEKKLRLQAAVVQTLIDYASDIGRVPDFILEKIPAMLGIDGLCATPSLEGFEEGEYETPGEYKRKRRQSVGDFVSGALNKFKPNRTPSITPQEERIAQLSESPVILTPNAKRTLPVDSSHGFSSKKRKSIKHNFNFELLPSNLFNSSSTPVSVHIDTSSEGSSQSSLSPVLIGGNHLITAGVPRRSKRIAGKKVCRVESGKAGCFSPKISHKEKVRRSLRLKFNLGKNGREVNGCSGVNRYESVGWRLANQQSLKNRIESVKTGLLFSPDVDEKLPKKGSEKISKSEETLLTPERLVGTNYRMSWTGPNNSSFQEVDANEASSMVENLEVENSLEPDIMVEKSPATSCELTPSNLNNKHNSNITSSPLSGDENNMTKETLVKVQKAFSESGSNLHALMNQRQSSVTNVGKVKLTEPSYLEDSPEENLFETNDLTIVESKEKYEHHTGKGEKCFSERDFSPLQTQTFNRETTIKCYSTQMKMEHEKDIHSNMPKDYLSKQEFSSDEEIKKQQSPKDKLNNKLKENENMMEGNLPKCAAHSKDEARSSFSQQSTCVVTNLSKPRPMRIAKQQSLETCEKTVSESSQMTEHRKVSDHIQWFNKLSLNEPNRIKVKSPLKFQRTPVRQSVRRINSLLEYSRQPTGHKLASLGDTASPLVKSVSCDGALSSCIESASKDSSVSCIKSGPKEQKSMSCEESNIGAISKSSMELPSKSFLKMRKHPDSVNASLRSTTVYKQKILSDGQVKVPLDDLTNHDIVKPVVNNNMGISSGINNRVLRRPSERGRAWYKGSPKHPIGKTQLLPTSKPVDL [ARHGAP11A]
[1]
  solubility in G1/S (log2): -0.915
[3]
  solubility change mitosis (log2): -0.288
[4]; [5]
  thermal stability score: -0.137
[4]; cell cycle stage: mitosis
  thermal stability score: -0.131

## NPTN
[1]
  solubility in G1/S (log2): 0.36
[3]
  solubility change mitosis (log2): 0.245
[4]; [5]
  thermal stability score: -1.2
[4]; cell cycle stage: mitosis
  thermal stability score: -2.14

## MAAVDSDVESLPRGGFRCCLCHVTTANRPSLDAHLGGRKHRHLVELRAARKAQGLRSVFVSGFPRDVDSAQLSEYFLAFGPVASVVMDKDKGVFAIVEMGDVGAREAVLSQSQHSLGGHRLRVRPREQKEFQSPASKSPKGAAPDSHQLAKALAEAADVGAQMIKLVGLRELSEAERQLRSLVVALMQEVFTEFFPGCVVHPFGSSINSFDVHGCDLDLFLDLGDLEEPQPVPKAPESPSLDSALASPLDPQALACTPASPPDSQPPASPQDSEALDFETPSSSLAPQTPDSALASETLASPQSLPPASPLLEDREEGDLGKASELAETPKEEKAEGAAMLELVGSILRGCVPGVYRVQTVPSARRPVVKFCHRPSGLHGDVSLSNRLALHNSRFLSLCSELDGRVRPLVYTLRCWAQGRGLSGSGPLLSNYALTLLVIYFLQTRDPPVLPTVSQLTQKAGEGEQVEVDGWDCSFPRDASRLEPSINVEPLSSLLAQFFSCVSCWDLRGSLLSLREGQALPVAGGLPSNLWEGLRLGPLNLQDPFDLSHNVAANVTSRVAGRLQNCCRAAANYCRSLQYQRRSSRGRDWGLLPLLQPSSPSSLLSATPIPLPLAPFTQLTAALVQVFREALGCHIEQATKRTRSEGGGTGESSQGGTSKRLKVDGQKNCCEEGKEEQQGCAGDGGEDRVEEMVIEVGEMVQDWAMQSPGQPGDLPLTTGKHGAPGEEGQPSHAALAERGPKGHEAAQEWSQGEAGKGASLPSSASWRCALWHRVWQGRRRARRRLQQQTKEGAGGGAGTRAGWLATEAQVTQELKGLSGGEERPETEPLLSFVASVSPADRMLTVTPLQDPQGLFPDLHHFLQVFLPQAIRHLK [TUT1]
[1]
  solubility in G1/S (log2): -0.00805
[3]
  solubility change mitosis (log2): 0.00387
[4]; [5]
  thermal stability score: 0.3
[4]; cell cycle stage: mitosis
  thermal stability score: 1.52
